From publication PMC5489476, “A thermophilic cell-free cascade enzymatic reaction for acetoin synthesis from pyruvate” (Scientific Reports, 2017)

Key:
coAHASL2 = biological target: T1, coAHASL2 (Caldicellulosiruptor owensensis, UniProt E4Q4G3); test: colorimetric acetoin assay; activity with […] FAD; format: biochemical; details: pyruvate, ThDP, Mg2+; 65 °C, Tris pH 6.5
T1 construct: gene Calow_0543; catalytic subunit alone, EC 2.2.1.6
T1 sequence (E4Q4G3 1-552): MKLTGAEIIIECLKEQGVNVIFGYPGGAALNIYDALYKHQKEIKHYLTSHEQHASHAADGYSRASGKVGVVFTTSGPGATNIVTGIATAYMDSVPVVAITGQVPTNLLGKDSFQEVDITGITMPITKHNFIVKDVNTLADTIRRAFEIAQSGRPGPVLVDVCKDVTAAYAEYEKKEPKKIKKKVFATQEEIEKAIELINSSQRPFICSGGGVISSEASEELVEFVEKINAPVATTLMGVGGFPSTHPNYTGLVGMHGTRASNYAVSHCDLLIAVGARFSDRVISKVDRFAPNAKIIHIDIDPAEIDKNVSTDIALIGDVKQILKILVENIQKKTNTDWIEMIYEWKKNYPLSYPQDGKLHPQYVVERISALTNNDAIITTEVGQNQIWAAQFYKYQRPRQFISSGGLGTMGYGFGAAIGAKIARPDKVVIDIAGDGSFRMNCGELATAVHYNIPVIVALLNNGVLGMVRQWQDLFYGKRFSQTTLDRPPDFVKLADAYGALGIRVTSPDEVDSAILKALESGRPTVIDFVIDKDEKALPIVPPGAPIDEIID

coAHASL1 = biological target: T2, coAHASL1 (Caldicellulosiruptor owensensis, UniProt E4Q3I4); test: colorimetric acetoin assay; activity with […] FAD; format: biochemical; details: pyruvate, ThDP, Mg2+; 65 °C, Tris pH 6.5
T2 construct: gene Calow_0356; catalytic subunit alone, EC 2.2.1.6
T2 sequence (E4Q3I4 1-536): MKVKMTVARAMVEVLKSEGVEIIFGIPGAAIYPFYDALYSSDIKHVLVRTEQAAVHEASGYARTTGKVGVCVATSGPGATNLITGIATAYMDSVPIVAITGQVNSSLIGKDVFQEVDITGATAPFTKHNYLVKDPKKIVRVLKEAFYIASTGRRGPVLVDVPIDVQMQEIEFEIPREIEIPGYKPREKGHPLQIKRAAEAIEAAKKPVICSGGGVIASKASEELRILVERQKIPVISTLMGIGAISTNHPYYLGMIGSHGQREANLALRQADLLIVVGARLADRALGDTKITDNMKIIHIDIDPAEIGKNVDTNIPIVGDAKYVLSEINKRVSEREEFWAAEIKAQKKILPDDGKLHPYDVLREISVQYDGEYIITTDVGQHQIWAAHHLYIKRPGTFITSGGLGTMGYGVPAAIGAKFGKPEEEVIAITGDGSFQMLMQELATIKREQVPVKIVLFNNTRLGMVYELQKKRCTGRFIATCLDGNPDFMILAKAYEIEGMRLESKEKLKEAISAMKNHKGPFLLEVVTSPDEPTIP

purified protein = substrate: CC(=O)C(=O)O; test: purified protein; format: biochemical, Caldicellulosiruptor owensensis; details: ThDP, FAD, Mg2+, catalytic subunit alone
[1] = 70 °C, pH 6.5 (citrate-phosphate)

Which results are given for `Cc1cc2nc3c(=O)[nH]c(=O)nc-3n(C[C@H](O)[C@H](O)[C@H](O)COP(=O)(O)OP(=O)(O)OC[C@H]3O[C@@H](n4cnc5c(N)ncnc54)[C@H](O)[C@@H]3O)c2cc1C` [FAD]?
activity enhancement (coAHASL2): concentration-dependent enhancements of both coAHASL1 and coAHASL2 were observed upon the addition of FAD; activity enhancement (coAHASL1): concentration-dependent enhancements of both coAHASL1 and coAHASL2 were observed upon the addition of FAD

B1: coAHASL1 (Caldicellulosiruptor owensensis OL) (protein)
chain: T2 sequence (E4Q3I4 1-536)
notes: catalytic subunit alone, EC 2.2.1.6
Which Km (purified protein; 65 °C, pH 6.5 (Tris)) does the source give for B1 here?
The Km was 71.83 ± 4.63 mM.

What about the Vmax (purified protein; 65 °C, pH 6.5 (Tris)) of the same molecule?
The Vmax was 3.7 µmol/min/mg.

B2: coAHASL2 (Caldicellulosiruptor owensensis OL) (protein)
chain: T1 sequence (E4Q4G3 1-552)
notes: as for B1
What does the source list for B2?
Km (purified protein; [1]): 53.78 ± 2.68 mM; Vmax (purified protein; [1]): 0.7 µmol/min/mg
